± gives the standard deviation of the averaged measurements.
B1: library; a variant is named by its letters at N, in order (parent)
chain: GCUGUCACCGAGAAACUGUGAAGUAUAUCUUAAACCUGGGCACUUAAAAGAUAUAUGGAGUUAGUAGUGCAACCUGCUCGGUCUGAUGAGUCCNNNNNNGGACGAAACAGC

What was measured:
cyclic di-GMP [1] = variants of: B1; assay: normalized RNA/DNA level without ligand (relative to sTRSVctl = 100) (log10 (% of sTRSVctl)); HEK293T; ligand: cyclic di-GMP (c-di-GMP-II aptamer); higher = less ribozyme self-cleavage, higher mRNA level; conditions: reporter: mCherry (pCS4076), ligand present: no
Outline: (§1)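 Library plasmids carrying ribozyme switches linked to mCherry, or to eGFP in some ligand experiments, were transfected into HEK293T at 4 µg per 6-well well, with any ligand added 1 h earlier. Seventy-two hours on, total RNA was extracted with EDTA and reverse-transcribed, amplified, barcoded and sequenced. RNA level was RNA over DNA reads normalized to a spiked-in non-cleaving sequence or to the top sequences, then scaled and log-transformed. The top set was 25 sequences, the transform was ×100 and log10, and sequences needed ≥100 DNA reads.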

cyclic di-GMP [2] = variants of: B1; assay: normalized RNA/DNA level with ligand (relative to sTRSVctl = 100) (log10 (% of sTRSVctl)); HEK293T; ligand: cyclic di-GMP (c-di-GMP-II aptamer); ligand concentration (+) RNA-Seq: 1 mM; higher = less ribozyme self-cleavage, higher mRNA level; conditions: reporter: mCherry (pCS4076), ligand present: yes
Outline: as §1

| Variant | normalized RNA/DNA level without ligand (log10) (cyclic di-GMP [1]) | normalized RNA/DNA level with ligand (log10) (cyclic di-GMP [2]) |
| --- | --- | --- |
| GUGCCA | 1.785 ± 0.015 | 1.9 ± 0.12 |
| GUGCCU | 1.81 ± 0.04 | 1.87 ± 0.1 |
| CUGAGC | 1.76 ± 0.033 | 1.87 ± 0.12 |
| CUGAGA | 1.46 ± 0.079 | 1.69 ± 0.11 |
| CUGAGG | 1.73 ± 0.031 | 1.88 ± 0.16 |
| UUCCUC | 1.779 ± 0.013 | 1.91 ± 0.1 |
| UUCCUG | 1.776 ± 0.017 | 1.91 ± 0.11 |
| UUCCUU | 1.73 ± 0.018 | 1.9 ± 0.099 |
| UUCCUA | 1.68 ± 0.018 | 1.83 ± 0.11 |
| AUCUAA | 1.52 ± 0.019 | 1.7 ± 0.091 |
| AUCUAG | 1.62 ± 0.032 | 1.8 ± 0.092 |
| AUCUAU | 1.71 ± 0.073 | 1.79 ± 0.067 |
| UUCUCA | 1.78 ± 0.073 | 1.9 ± 0.087 |
| UUCUCG | 1.8 ± 0.065 | 1.91 ± 0.15 |
| UUCUCC | 1.83 ± 0.031 | 1.9 ± 0.1 |
| UUCUCU | 1.8 ± 0.039 | 1.91 ± 0.11 |
| UUGCCG | 1.83 ± 0.058 | 1.91 ± 0.12 |
| UUGCCA | 1.8 ± 0.08 | 1.82 ± 0.13 |
| UUGCCC | 1.83 ± 0.081 | 1.84 ± 0.2 |
| UUGCCU | 1.746 ± 0.0023 | 1.89 ± 0.091 |

| Variant | normalized RNA/DNA level without ligand (log10) (cyclic di-GMP [1]) | normalized RNA/DNA level with ligand (log10) (cyclic di-GMP [2]) |
| --- | --- | --- |
| GUGCAC | 1.729 ± 0.0059 | 1.83 ± 0.17 |
| GUGCAG | 1.86 ± 0.06 | 1.89 ± 0.13 |
| GUGCAA | 1.64 ± 0.046 | 1.77 ± 0.084 |
| CUGACG | 1.8 ± 0.028 | 1.9 ± 0.17 |
| CUGACA | 1.51 ± 0.086 | 1.7 ± 0.075 |
| CUGACU | 1.52 ± 0.05 | 1.75 ± 0.11 |
| UUCCAU | 1.73 ± 0.028 | 1.85 ± 0.15 |
| UUCCAG | 1.76 ± 0.022 | 1.89 ± 0.093 |
| UUCCAC | 1.7863 ± 0.00044 | 1.88 ± 0.13 |
| UUCCAA | 1.7 ± 0.037 | 1.84 ± 0.13 |
| UUCUUC | 1.78 ± 0.05 | 1.89 ± 0.16 |
| UUCUUG | 1.73 ± 0.045 | 1.86 ± 0.11 |
| UUCUUA | 1.76 ± 0.095 | 1.87 ± 0.15 |
| UUCUUU | 1.74 ± 0.024 | 1.9 ± 0.081 |
| GUCGAC | 1.5985 ± 0.0011 | 1.76 ± 0.16 |
| GUCGAU | 1.59 ± 0.11 | 1.71 ± 0.096 |
| GUCGAA | 1.49 ± 0.068 | 1.65 ± 0.11 |
| GUCGAG | 1.617 ± 0.0063 | 1.76 ± 0.12 |
| AUCGCU | 1.7 ± 0.023 | 1.81 ± 0.089 |
| AUCGCC | 1.78 ± 0.013 | 1.88 ± 0.15 |

| Variant | normalized RNA/DNA level without ligand (log10) (cyclic di-GMP [1]) | normalized RNA/DNA level with ligand (log10) (cyclic di-GMP [2]) |
| --- | --- | --- |
| AUCGCA | 1.65 ± 0.018 | 1.77 ± 0.12 |
| AUCGCG | 1.75 ± 0.035 | 1.84 ± 0.054 |
| GUGCGA | 1.6 ± 0.071 | 1.73 ± 0.1 |
| UUGAAU | 1.661 ± 0.0028 | 1.83 ± 0.095 |
| UUGAAC | 1.691 ± 0.0046 | 1.82 ± 0.11 |
| CUCGCG | 1.857 ± 0.014 | 1.91 ± 0.039 |
| CUCGCA | 1.66 ± 0.047 | 1.81 ± 0.14 |
| CUCGCC | 1.784 ± 0.0038 | 1.86 ± 0.095 |
| AUGCAU | 1.62 ± 0.045 | 1.76 ± 0.12 |
| AUGCAA | 1.52 ± 0.029 | 1.66 ± 0.12 |
| AUGCAC | 1.714 ± 0.0048 | 1.86 ± 0.081 |
| AUGCAG | 1.7646 ± 0.00074 | 1.89 ± 0.055 |
| AUCUCU | 1.669 ± 0.0069 | 1.86 ± 0.042 |
| AUCUCC | 1.806 ± 0.0081 | 1.9 ± 0.034 |
| AUCUCG | 1.76 ± 0.023 | 1.87 ± 0.15 |
| AUCUCA | 1.666 ± 0.0097 | 1.78 ± 0.16 |
| AUCGUU | 1.6 ± 0.035 | 1.78 ± 0.048 |
| AUCGUG | 1.59 ± 0.084 | 1.74 ± 0.027 |

— the supplement of paper PMC6757056
